Test results reported in publication PMC11814294, “A pathogen effector HaRxL10 hijacks the circadian clock component CHE to perturb both plant development and immunity” (Nature Communications, 2025).

Assays:
[1] = molecular target: T1, GST-His-ZTL (Arabidopsis thaliana, UniProt Q94BT6 1-609, RED-NHS 2nd Generation fluorescent label (in the MST assay only)); test: MST; 50 nM RED-NHS-labelled GST-ZTL with serially diluted His-CHE, without or with 5 uM His-HaRxL10; 50 mM Tris-HCl pH 7.4, 150 mM NaCl, 10 mM MgCl2, 0.1% Pluronic F-127, Tween-20; 25 °C; Monolith NT.115; details: both partners purified
T1 construct: Vector pET-42a (GST-tag); Printed molecular weight 99 kD; Called GST-His-ZTL in the pull-downs and GST-ZTL in the MST assay; also called GST-ZTL; ZEITLUPE; source: E. coli BL21 (DE3), purified (GST-beads); not shown: GST, N-terminal, kept; His, N-terminal, kept
T1 sequence (Q94BT6 whole entry): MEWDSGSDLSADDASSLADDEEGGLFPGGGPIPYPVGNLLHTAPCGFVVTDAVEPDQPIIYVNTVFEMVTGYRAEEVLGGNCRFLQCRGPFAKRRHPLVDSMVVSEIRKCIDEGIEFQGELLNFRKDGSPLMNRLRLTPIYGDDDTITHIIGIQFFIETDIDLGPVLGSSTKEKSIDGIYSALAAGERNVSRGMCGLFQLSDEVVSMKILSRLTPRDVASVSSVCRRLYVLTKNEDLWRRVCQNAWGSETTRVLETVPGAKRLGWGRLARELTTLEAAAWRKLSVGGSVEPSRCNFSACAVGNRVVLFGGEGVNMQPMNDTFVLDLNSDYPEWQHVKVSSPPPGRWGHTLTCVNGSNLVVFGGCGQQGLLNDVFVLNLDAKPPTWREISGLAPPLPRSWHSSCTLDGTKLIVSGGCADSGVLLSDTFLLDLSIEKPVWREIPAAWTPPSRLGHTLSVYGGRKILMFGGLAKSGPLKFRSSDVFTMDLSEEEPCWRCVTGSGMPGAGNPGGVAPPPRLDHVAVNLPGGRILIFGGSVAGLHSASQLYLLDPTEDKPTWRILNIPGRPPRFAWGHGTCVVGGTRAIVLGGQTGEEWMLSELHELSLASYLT

[2] = molecular target: T1, GST-His-ZTL; test: pull-down; MBP-His-CHE and GST-His-ZTL in equal amounts (about 5 ug), amylose resin, MBP column buffer (20 mM Tris-HCl pH 7.4, 0.2 M NaCl, 1 mM EDTA), 2-3 h at 4 °C; blots with anti-MBP and anti-GST; details: both partners purified

B1: His-CHE (natural protein)
chain: not shown
notes: Vector pET28a (His-tag); source: E. coli BL21 (DE3), purified (Ni-NTA); not shown: His, N-terminal, kept
Q: Does B1 bind [1]?
A: Result: binds

B2: MBP-His-CHE (natural protein)
chain: not shown
notes: Vector pQLink (MBP-His-tag); Printed molecular weight 70.1 kD; source: E. coli BL21 (DE3), purified (amylose resin); not shown: MBP, N-terminal, kept; His, N-terminal, kept
Q: Does B2 bind [2]?
A: Result: binds
